This series relates to mRNA. The series can be described thus: Agarose gel electrophoresis of branched polypeptide mixed with mRNA. The series is classed as physicochemical. The following applies: 1.5% agarose, 190 V, 20 minutes. How it is done:
A 1.5% agarose gel was prepared by dissolving agarose in a TBE buffer using a microwave. After adding the sub-green dye, the solution was poured into the gel plate, and a comb was inserted. Polypeptide Sequences 9-12 samples were each mixed with mRNA and then mixed with the sample loading buffer in a 1:1 ratio and set aside after thorough mixing. The gel was loaded with Marker and the samples, then subjected to electrophoresis at 190 V for 20 minutes, and images were captured using a gel imaging system.

[1] abbreviates: polypeptide with mRNA at a 1:1 mass ratio.
Setting [2] is: polypeptide with mRNA at a 1:2 mass ratio.

Ends that are not written are not given here.

Turning to “K(LAALAALAALAALAA)KK(KSKKSKKSKC)KK(LAALAALAALAALAA)KK(KSKKSKKSKC)KK(LAALAALAALAALAA) (chain 1 KKKKKKKKK; chain 2 AALAALAALAALAAL; chain 3 CKSKKSKKSK; also: branched: C-termini of three chain 2 copies amide-linked to side chains of Lys1, Lys5, Lys9 of chain 1, C-termini of two chain 3 copies amide-linked to side chains of Lys3, Lys7 of chain 1) [Polypeptide Sequence 12]”, the “retention of complex in sample well (mRNA encapsulation, FIG. 7)” value (“retention of complex in sample well” below) was “remained within the sample wells” under setting [1] and “remained within the sample wells” under setting [2].

With “K(LAALAALAALAALAAC)KK(KDKDKDKDKDKD)KK(KDKDKDKDKDKD)KK(LAALAALAALAALAAC) (chain 1 KKKKKKK; chain 2 CAALAALAALAALAAL; chain 3 DKDKDKDKDKDK; also: branched: C-termini of two chain 2 copies amide-linked to side chains of Lys1, Lys7 of chain 1, C-termini of two chain 3 copies amide-linked to side chains of Lys3, Lys5 of chain 1) [Polypeptide Sequence 11]”, the “retention of complex in sample well” value by setting is: under setting [1], “remained within the sample wells”; under setting [2], “remained within the sample wells”.

Take “K(LAALAALAALAALAALAALAAC)KK(KSKKSKKSKKSKKSK)KK(LAALAALAALAALAALAALAAC) (chain 1 KKKKK; chain 2 CAALAALAALAALAALAALAAL; also: branched: C-termini of two chain 2 copies amide-linked to side chains of Lys1, Lys5 of chain 1, C-terminus of chain 3 amide-linked to side chain of Lys3 of chain 1) [Polypeptide Sequence 10]”: the “retention of complex in sample well” value was “remained within the sample wells” under setting [1] and “remained within the sample wells” under setting [2].

On to “K(LAALAALAALAALAALAALAAC)KKKK(LAALAALAALAALAALAALAAC) (chain 1 KKKKK; chain 2 CAALAALAALAALAALAALAAL; also: branched: C-termini of two chain 2 copies amide-linked to side chains of Lys1, Lys5 of chain 1) [Polypeptide Sequence 9]”, for which the “retention of complex in sample well” value runs as follows: under setting [1], “remained within the sample wells”; under setting [2], “remained within the sample wells”.

The values are drawn from patent publication US20250332275A1, “Branched Polypeptide Carrier for Efficient Nucleic Acid Delivery and Its Variants” (SUZHOU HEALIRNA BIOTECHNOLOGY CO., LTD., priority 2022, published 2025).
